For test [1], the target named is RAD51 (UniProt Q08297). Nature of the test: co-IP of RAD51-GFP, RAD51AP1-mCherry blotted. The note with it: reference: wild type, asynchronous cells; sites T305.
In test [2] the target is RAD51 (UniProt Q08297). Description: co-IP of RAD51AP1-mCherry, RAD51-GFP blotted. The settings on record: reference: wild type, asynchronous cells; sites T305.

On to RAD51AP1 (from UniProt Q8C551) T305A, for which the other: percent reduction vs wild type worked out at 62% with RAD51 [1] and 90% in the test with RAD51 [2].
